Experimental data as given in the DeepSol protein solubility set.

Assay: soluble on expression in E. coli; label from the status in PepcDB or PDB records
With “MGSDKIHHHHHHMNLKRRRLLDLKSEIFEKIIKIEGNKIDIKPPKKIPQPILSPSREGFDSRNTYNPAVIKEKDRIVMLYRAESKEDKLTGRIGLAISYDGINFFRHPEPIIEPEYKWESVGVEDPRIVKVGKTYYMTYTGYDGKTARLCLATSKNMLTWKKHGPIFEGFEYKKNNIKGWTKSGAILPKKLEKGNFKGNYLMYFGDSNIWMAVSKDLVNWEYMKEPVLSPREGYFDNVLVEPGPPLFETSYGIALIYNSAGRYGDKLKYKVGVVIFDKEYPDKVVARTETPLMVPEYEWELYGHVNNVVFVEGMVEHENKILLYYGGADRHIGLAYWTTDL” the “soluble on expression in E. coli” value was “not soluble”. With “MSLTTIKTSNLGFPRIDLNREWKKALEAYWKGSTDKDTFLKQIDELFLSAVKTQIDQQIDVVPVSDFTQYDHVLDTAVSFNWIPKRFRHLTDATDTYFAIARGIKDAVSSEMTKWFNTNYHYIVPEYDESIEFRLTRNKQLEDYRRIKQEYGVETKPVIVGPYTFVTLAKGYEPSEAKAIQKRLVPLYVQLLKELEEEGVKWVQIDEPALVTASSEDVRGAKELFESITSELSSLNVLLQTYFDSVDAYEELISYPVQGIGLDFVHDKGRNLEQLKTHGFPTDKVLAAGVIDGRNIWKADLEESLDAVLDVLSIAKVDELWIQPSSSLLDVPVAKHPDEHLEKDLLNGLSYAKEKLAELTALKEGLVSGKAAISEEIQQAKADIQALKQFATGANSEQKKELEQLTDKDFKRPIPFEERLALQNESLGLPLLPTTTIGSFPQSAEVRRARQKWRKAEWSDEQYQNFINAETKRWIDIQEELELDVLVHGEFERTDMVEYFGEKLAGFAFTKYAWVQSYGSRCVRPPVIYGDVEFIEPMTVKDTVYAQSLTSKHVKGMLTGPVTILNWSFPRNDISRKEIAFQIGLALRKEVKALEDAGIQIIQVDEPALREGLPLKTRDWDEYLTWAAEAFRLTTSSVKNETQIHTHMCYSNFEDIVDTINDLDADVITIEHSRSHGGFLDYLKNHPYLKGLGLGVYDIHSPRVPSTEEMYNIIVDALAVCPTDRFWVNPDCGLKTRQQEETVAALKNMVEAAKQARAQQTQLVEGGSHHHHHH” the “soluble on expression in E. coli” value was “soluble”. In the case of “MSQLMQLKDVAESTRLGPLSGEVSAGEILHLVGPNGAGKSTLLARMAGLTSGEGSIRFGGAPLEAWATATLAQHRAYLAQQQNPPFAMPVWHYLTLHQPDKTRTGQLNEVADMLGLGDKLGRSVNQLSGGEWQRVRLAAVVLQIHPDANPVGQLLLLDEPMNSLDVAQQNALDRVLHHLCQAGIAIVMSSHDLNHTLRHAHKAWLLKRGKLIACGRREEVLTPSYLAQAYGLRFRRLDVEGHPMLISAT”, the “soluble on expression in E. coli” value is reported as “not soluble”. In the case of “GMLSNLESSIQSPKSGEYQCLAALNLYDSPECTSLATQAAVGRHLQVTSNQQGAAVEVCLCEDDYPGWLSLGDLGLLKPATVLYQAKSFSESEIKKLLPGAIAFTQKAMQQSNYYLWGGTVGPNYDCSGLMQAAFVSVGIWLPRDAYQQEAFTQAITIDELAPGDLVFFGTPVKATHVGLYLGDGCYIHSSGKAQGRDGIGIDILSEQGDVVSRSYYQQLRGAGRVVKSYKPQRH”, the “soluble on expression in E. coli” value is reported as “soluble”. For “MIRTVKPKNARAKRALVKREAKLVENVKQALFIPGQSCNKNLHDIMVDLSALKKPDMKRFNRKNDIHPFEDMSPLEFFSEKNDCSLMVLMTSSKKRKNNMTFIRTFGYKIYDMIELMVADNFKLLSDFKKLTFTVGLKPMFTFQGAAFDTHPVYKQIKSLFLDFFRGESTDLQDVAGLQHVISMTIQGDFQDGEPLPNVLFRVYKLKSYKSDQGGKRLPRIELVEIGPRLDFKIGRIHTPSPDMVTEAHKKPKQLEMKTKKNVELDIMGDKLGRIHMGKQDLGKLQTRKMKGLKSKFDQGTEEGDGEVDEDYEDEASYSDDGQEYEEEFVSATDIEPSAKRQKK”, the “soluble on expression in E. coli” value was “not soluble”. For “MGSDKIHHHHHHMFAKFVQRHGAARKAADKTIRAQAGALYAALKDPPGPPHAPASAEHREHQEQDAKEQTMYNDSKHGFDVAQTEYEAFMLEPHDWVPNNRKLPVVIYRRALMPASGDLAAAFEILFERNAWPPQWRDGIFDYHHFHATAHEILGVTDGSAQVIVGGPGGRVVTLCAGDALLLPAGTGHCLQSFARHFQVVAGYPEGQQWDIRREALTPDELASMEALPFPSLDPIDGKHGPLVEHWLHAA”, the “soluble on expression in E. coli” value was “not soluble”. For “MNLNPAHINEPVQKEFLSVIKEYERVIYKVCYLYTTRNATLGDLYQEVILNLWKAYPKFRKECKISTWIYRIALNTCISFIRKEKNVPEIVALTREADWMTEEKDELTEMLRQLYRMINQLGQLDKSIVLLYLEEKSYEEIAEITGLTVTNVATKLSRIKDKLKKMKKEE”, the “soluble on expression in E. coli” value was “not soluble”. In the case of “MGSDKIHHHHHHMSARLDAQIAFLKQADRLKSVERANVLLDLSRPENSAEHSWHLALWALVLSPFAAPDVDVDRAIRMLLLHDLVEIETGDHPIHEVTDWQAVERAERAAARKLFGLLPPDQAADFHTLWTEFDADETADARYAKMLDRCQPMFQVLCADTPRPDHVEVVRENLSSGRAAYLAEAFPEAHAHARALLERHPPVTGGFGDRLEFLAEADRLKTVLRASRLMDDSRFENSAEHSWHIMLYAWVLGEYAAAPVDIDRVLRMLLLHDLVEIDAGDNPIHGNVDHAAQEALEAAAAERLFGLLPPDQGAGLRAIWQEFETAQSADALFGKAVDRVQTPIANLENGGGSWVTYDVSLQQLVARVGTPVSRGAPGLWDWLFPQLSDCFTRLGLRL”, the “soluble on expression in E. coli” value is reported as “not soluble”. In the case of “MSKLEELDIVSNNILILKKFYTNDEWKNKLDSLIDRIIKAKKIFIFGVGRSGYIGRCFAMRLMHLGFKSYFVGETTTPSYEKDDLLILISGSGRTESVLTVAKKAKNINNNIIAIVCECGNVVEFADLTIPLEVKKSKYLPMGTTFEETALIFLDLVIAEIMKRLNLDESEIIKRHCNLL”, the “soluble on expression in E. coli” value is reported as “soluble”. With “MGSDKIHHHHHHMTLSSSFAQLKDFKFKFYGQIRTDFYYNSRANEETVDGLFYMYPKDEVLDGNGEDLNATSNSNFYTLYSRLGLDVAGPKLGTAKTSAKVEVDFRGSGTSYSTIRLRHAYFNLDWGKSAVLVGQTWHPLFGDVSPQILNLSVGAPFQPFSRAPQIRYRFNNKHLQLTGALVWQSQYLSQGPAGKSQEYIKKSNIPEIYVGADYKNGGFLAGAGIEMISLKPRTQSSWEEKTFDPTTNSTISIPHTYKVDERITTLSYEAHVKYTNKNWFIGAKSVLGSNLTQASGLGGFGIKHIDNKTKEQEYTPIRFSSSWLNVVYGQKWKPGIFVGYAKNLGTSDELVSEKLYGTGTNLDKLVTAGAELTYNVPHWKFGVEYTLSSAWYGKLDKSDGKIIDTHSVSNNRIVAVAMFMF” the “soluble on expression in E. coli” value was “not soluble”. For “MAGAGHKEDKSVTKKLIKKESKSDITIYFKQREESEDNNANPINISRSSEKDRVIMLVNGSNGSKKNLASELNVRRSVAQTGAGGVTQPKPLLNDINTKSHAFIQSRLEKMRKGL”, the “soluble on expression in E. coli” value was “not soluble”. In the case of “MSLFRLVFVMDIFNRNVVLAKGGIRENYRPVSDSSAVCRTSDPLEILEILRPKEVYIADLNVLQGKGPLDMNAEIIREVSFKADTMLDSGVSSSKDVDRALSIAGTAVIGTETGTLEVIKDSISRNPGRISVSIDIKHGKLLKQDPKIPEDPFEIVKILNRLPLKDLIFLDLDRVGTASGFDPEFLRKLAESSAHDVLLAGGVRGMKDLFALDSLGIKGALVATAIHSGEVSPEVMTLGLKKEGHHHHHH”, the “soluble on expression in E. coli” value is reported as “soluble”. For “MAEVKGMTVFNTEEVNTKKQPMFFGKPLGVQRYDNFKYPSFENLTKQQLGYFWRPEEVSLQKDRGDYQTLRPEQKHIYTSNLKYQIMLDSVQGRAPGMAFLPYCSLPELEACMEVWSFMEMIHSRSYTYVIKNVYADPSEVFDKILSDDRILSRAASVTESYDDFINEAQGWGQSNLWRDMDKSLDTSLPVLEMKEVKRKLYRAVTNVNILEGIRFYVSFACSFAFGELKVMEGSAKIISLIARDENQHLAITQNILNNWRKGDDPEMVEIMKEEEQWTYQMFEKCVNEEKMWAEYLFKDGSMIGLNDKLLHQYVEWVANRRMRSIGMKPVYDIAAKNNPLPWTEHWISSKGLQVAPQETEVESYIVGGIKQDVKKDTFAGFKL”, the “soluble on expression in E. coli” value was “soluble”. With “MEQLTLQVEGMSCGHCVNAIESSVKELNGVEQVKVQLAEGTVEVTIDSSVVTLKDIVAVIEDQGYDVQ” the “soluble on expression in E. coli” value was “not soluble”. For “MGSDKIHHHHHHMENSKVSLKIDVLVAEIGSTTTVVNAFHDINTNNPIFLGQGQAPTTVFEGGDVRNGLSGAIKDLANKLSVDDIEYNDMFATSSAAGGLKMTVHGLVYDMTVKAAKEAALGAGAVIRQITSGRIKRTDLNKIKEINPNIILIAGGVDYGERDTAIYNAEMIASMNLGIPVIYAGNVENQEEIRLIFEDTNYKLYITENVYPKIDLLNIEPTRRIIQSVFEEHITTAPGMKYIKEMVNENITPTPGAVMEASKLLYKNIGDLLTLDVGGATTDVHSVTDGSDYINKILVNPEPTAKRSVEGDLGVYVNMKNIVEVIGKENLQSELSIDIDAVIENYPPIPKSKEEILFVERLTKEAVVKAMLRHSGKIRNIYGTTGKVKIAEGKDLTEVRYIVGTGGALTRLPSRIEILDNMLKYNKNNELLFPKEKTKILIDNDYIMASMGVLSKKYEEASLKLLLKSLNFEEERLCILG”, the “soluble on expression in E. coli” value was “not soluble”. For “MAHHHHHHMAASSPLGMANYVTGDPLGVAGQEAGKGAGALLAAVQQCSAELSHEFGDGVALMTGEPAAATTSSHASPLSPEQRVALSAGAVTCLSVASLPGTTDTAVAVVGTTVGTVALLLIEGSRAVYKVAECSLMEWSSGAITAQDAIVDVAFSMDPAGRPEFVGAASAGCVVVVDVQLLYRPSGNSSRSTDEEVGDTATDAPAAVVHRAEWHQATELWSNSALRAKAVEALERSSAQLVRHCCSDVFACSFVEADVVRILAPQRLQAAVAIDVALVVVLSSGALHYVERVVEGGSVRLLAEHHWQRLAKGAAFTSHASAATQGADSAAENDFSADGTSVHLVTDSRAVPHVIYRYRLSPYHVQACQDGGQTASGGGGNYSMAALALPCATESVTHVCDAHLHFSEKDAACHVVLAGTQRVPVGKVGYMSVASRVGSLGHAQQQQHAGVAGCRTLAWWAVVQNAVLPRQTFDRSALERQALQHQHQQQQQQLHDGHAFPPFRTNAGSPPFTVHVQSNTMALPCGLGTCPASALTSPATSSPATAGAGVASGVSAVGPGQGSGFAAAFMLTDILVLASGHELYVGDLRDVPRSAKTLPVPRPLRSFGSVVEGITAGPYMDARAVLVATGSRVAPVSLV”, the “soluble on expression in E. coli” value was “not soluble”. In the case of “MYLRPDEVARVLEKAGFTVDVVTNKTYGYRRGENYVYVNREARMGRTALIIHPRLKDRSSSLADPASDIKTCDHYQNFPLYLGGETHEHYGIPHGFSSRIALERYLNGLFGDEKTD”, the “soluble on expression in E. coli” value is reported as “not soluble”. With “RLLKVPVFVHESDLSMGLANKIAYKFATIMYTTFEQSKDLIKTKHIGAVTKVMDCKKSFENTDLTSIKEAFDPNLKTLLFIGGSAGAKVFN” the “soluble on expression in E. coli” value was “not soluble”. In the case of “MGSDKIHHHHHHMSLHSDILVVGAGPAGLSFAAELAGSGLKVTLIERSPLTVLQNPPYDGREIALTHFSREIMQRLGMWDKIPENEIYPLRDAKVLNGRSDYQLHFPQPTEARGEPADCLGYLISNHNIRRAAYEVVSQLDNVSILTDTAVKEVKTSDNEAQVFLENGDILTARLLLAADSRFSQTRRQLGISSDMHDYSRTMFVCRMKHTLSNQHTAYECFHYGRTIALLPLEKRLTNTVITVDTDKINSVQNLSPEELAASVKEQLKGRLGDMELVSSIHHYPLVGMIAKRFYGKRSALIGDAAVGMHPVTAHGFNLGLSSADILAKLILEAEQRGQDIGAASLLEKYSSKHMLHAHPLYHGTNMMLKLFTNETAPAKLLRGLVLRAGNNFPPLKKLITKQLTG”, the “soluble on expression in E. coli” value is reported as “not soluble”. With “MEANILSTHKSKILVFKGWSERQKSVVFIPIEAVLEGHNIEVQFFEKPNEPVTFQVKDKNGNIVFQDMTTPDNLEIYQIDVSGFKTGQYELLYIEKDVTLIGEFEIE” the “soluble on expression in E. coli” value was “not soluble”.
